This series concerns the molecule itself. The experiment in a line: cross-linking.

Changes are numbered by the printed parent chain.

B1: Bacterial lipocalin Blc^G84 (natural protein, E. coli, UniProt P0A901 19-177, looked up)
chain: CSSPTPPRGVTVVNNFDAKRYLGTWYEIARFDHRFERGLEKVTATYSLRDDGGLNVINKGYNPDRGMWQQSEGKAYFTGAPTRAALKVSFFGPFYGGYNVIALDREYRHALVCGPDRDYLWILSRTPTISDEVKQEMLAVATREGFDVSKFIWVQQPGS
As for B1, the stoichiometry N – broadly, a count of units in the complex or per binding partner – amounted to 2.

B2: Bacterial lipocalin Blc^E84 (natural protein, E. coli, UniProt P0A901 19-177, looked up)
chain: B1 chain with G66E
Turning to B2, the “stoichiometry N” value stood at 2.
